According to publication PMC9482650, “Quantitative fragmentomics allow affinity mapping of interactomes” (Nature Communications, 2022):

T1: APBA3_1, O96018
T1 sequence (O96018 389-490, limits assumed, looked up): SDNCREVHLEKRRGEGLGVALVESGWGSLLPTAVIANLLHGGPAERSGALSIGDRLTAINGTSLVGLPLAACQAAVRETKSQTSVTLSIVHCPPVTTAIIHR

T2: CARD11, Q9BXL7
T2 sequence (Q9BXL7 662-765, limits assumed, looked up): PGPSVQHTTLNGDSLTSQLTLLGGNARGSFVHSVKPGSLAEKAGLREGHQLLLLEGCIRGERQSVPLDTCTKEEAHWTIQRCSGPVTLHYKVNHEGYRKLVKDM

T3: LIN7C, Q9NUP9
T3 sequence (Q9NUP9 88-185, limits assumed, looked up): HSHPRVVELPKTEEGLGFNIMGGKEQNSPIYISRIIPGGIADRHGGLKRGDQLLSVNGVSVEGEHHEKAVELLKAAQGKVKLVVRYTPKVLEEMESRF

T4: SYNJ2BP, P57105
T4 sequence (P57105 8-110, limits assumed, looked up): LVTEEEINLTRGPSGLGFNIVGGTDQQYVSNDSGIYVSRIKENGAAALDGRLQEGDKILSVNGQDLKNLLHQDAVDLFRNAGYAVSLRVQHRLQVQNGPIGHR

T5: GRIP1_7, Q9Y3R0
T5 sequence (Q9Y3R0 999-1096, limits assumed, looked up): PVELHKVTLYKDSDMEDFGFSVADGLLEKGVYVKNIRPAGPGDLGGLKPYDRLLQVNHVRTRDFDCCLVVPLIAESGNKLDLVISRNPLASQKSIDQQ

T6: SNTG2, Q9NY99
T6 sequence (Q9NY99 68-166, limits assumed, looked up): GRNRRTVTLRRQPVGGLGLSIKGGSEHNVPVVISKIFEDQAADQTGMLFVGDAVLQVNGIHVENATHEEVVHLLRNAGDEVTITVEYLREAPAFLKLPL

T7: MPDZ_12, O75970
T7 sequence (O75970 1857-1958, limits assumed, looked up): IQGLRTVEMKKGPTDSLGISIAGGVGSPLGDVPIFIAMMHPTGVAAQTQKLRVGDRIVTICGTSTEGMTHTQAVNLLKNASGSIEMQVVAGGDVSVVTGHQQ

T8: HTRA3, P83110
T8 sequence (P83110 354-453, limits assumed, looked up): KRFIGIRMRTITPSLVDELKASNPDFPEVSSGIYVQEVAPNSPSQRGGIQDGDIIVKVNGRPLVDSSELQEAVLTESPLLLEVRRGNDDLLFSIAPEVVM

T9: TIAM2, Q8IVF5
T9 sequence (Q8IVF5 885-986, limits assumed, looked up): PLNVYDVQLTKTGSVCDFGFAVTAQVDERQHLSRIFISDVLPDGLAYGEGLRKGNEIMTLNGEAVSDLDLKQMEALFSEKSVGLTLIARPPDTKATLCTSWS

T10: SNTA1, Q13424
T10 sequence (Q13424 82-180, limits assumed, looked up): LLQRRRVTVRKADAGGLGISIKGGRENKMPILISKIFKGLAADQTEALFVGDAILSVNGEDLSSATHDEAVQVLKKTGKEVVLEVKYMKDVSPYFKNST


Tests used:
Assay in all cases: holdup assay
Design in all cases: key: below the threshold = too weak to quantify, mostly under pKd 3.1 to 4
Conditions in all cases: plain residues with an end cap or a label only (N-terminal biotin on a linker: ttds)
APBA3_1, O96018 = molecular target: T1, APBA3_1, O96018
DLG2_2, Q15700 = molecular target: DLG2_2, Q15700
CARD11, Q9BXL7 = molecular target: T2, CARD11, Q9BXL7
LIN7C, Q9NUP9 = molecular target: T3, LIN7C, Q9NUP9
GRID2IP_1, A4D2P6 = molecular target: GRID2IP_1, A4D2P6
LDB3, O75112 = molecular target: LDB3, O75112
SYNJ2BP, P57105 = molecular target: T4, SYNJ2BP, P57105
GRIP2_7, Q9C0E4 = molecular target: GRIP2_7, Q9C0E4
GRIP1_7, Q9Y3R0 = molecular target: T5, GRIP1_7, Q9Y3R0
MAGI2_2, Q86UL8 = molecular target: MAGI2_2, Q86UL8
NHERF2_2, Q15599 = molecular target: NHERF2_2, Q15599
SNTG2, Q9NY99 = molecular target: T6, SNTG2, Q9NY99
FRMPD2_2, Q68DX3 = molecular target: FRMPD2_2, Q68DX3
GRID2IP_2, A4D2P6 = molecular target: GRID2IP_2, A4D2P6
MPDZ_12, O75970 = molecular target: T7, MPDZ_12, O75970
HTRA2, O43464 = molecular target: HTRA2, O43464
HTRA3, P83110 = molecular target: T8, HTRA3, P83110
DLG4_3, P78352 = molecular target: DLG4_3, P78352
MAST1, Q9Y2H9 = molecular target: MAST1, Q9Y2H9
SCRIB_1, Q14160 = molecular target: SCRIB_1, Q14160
GORASP1, Q9BQQ3 = molecular target: GORASP1, Q9BQQ3
GORASP2, Q9H8Y8 = molecular target: GORASP2, Q9H8Y8
AHNAK1, Q09666 = molecular target: AHNAK1, Q09666
DLG1_3, Q12959 = molecular target: DLG1_3, Q12959
GRIP2_5, Q9C0E4 = molecular target: GRIP2_5, Q9C0E4
MAGI2_5, Q86UL8 = molecular target: MAGI2_5, Q86UL8
TIAM2, Q8IVF5 = molecular target: T9, TIAM2, Q8IVF5
SNTA1, Q13424 = molecular target: T10, SNTA1, Q13424

Sequence of DLG4_3, P78352 (P78352 306-403): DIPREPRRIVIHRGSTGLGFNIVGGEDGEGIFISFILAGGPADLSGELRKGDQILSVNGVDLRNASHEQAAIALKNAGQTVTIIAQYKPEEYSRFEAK
Sequence of GRIP2_5, Q9C0E4 (Q9C0E4 544-642): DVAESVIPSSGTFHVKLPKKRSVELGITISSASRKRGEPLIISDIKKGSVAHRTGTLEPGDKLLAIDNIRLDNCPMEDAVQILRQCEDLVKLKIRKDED
Sequence of FRMPD2_2, Q68DX3 (Q68DX3 944-1038): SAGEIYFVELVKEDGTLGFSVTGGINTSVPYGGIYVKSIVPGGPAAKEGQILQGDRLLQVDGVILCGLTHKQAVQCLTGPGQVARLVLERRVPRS
Sequence of GRID2IP_2, A4D2P6 (A4D2P6 272-370): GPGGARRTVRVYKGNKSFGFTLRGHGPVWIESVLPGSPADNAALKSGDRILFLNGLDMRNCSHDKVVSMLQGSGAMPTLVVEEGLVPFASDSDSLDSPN
Sequence of SCRIB_1, Q14160 (Q14160 718-814): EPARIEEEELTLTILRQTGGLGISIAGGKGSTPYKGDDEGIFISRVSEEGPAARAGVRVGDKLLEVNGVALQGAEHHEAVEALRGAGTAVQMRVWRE
Sequence of AHNAK1, Q09666 (Q09666 4-100): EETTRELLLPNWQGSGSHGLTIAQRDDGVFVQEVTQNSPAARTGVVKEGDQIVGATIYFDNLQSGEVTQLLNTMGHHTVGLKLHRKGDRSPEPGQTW
Sequence of MAST1, Q9Y2H9 (Q9Y2H9 962-1065): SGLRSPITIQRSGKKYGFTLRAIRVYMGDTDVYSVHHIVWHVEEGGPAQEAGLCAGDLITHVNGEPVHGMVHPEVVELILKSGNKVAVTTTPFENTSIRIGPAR
Sequence of MAGI2_5, Q86UL8 (Q86UL8 915-1017): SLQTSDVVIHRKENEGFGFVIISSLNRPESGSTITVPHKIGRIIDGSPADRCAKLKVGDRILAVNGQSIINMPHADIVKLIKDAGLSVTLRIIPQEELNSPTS
Sequence of HTRA2, O43464 (O43464 355-458): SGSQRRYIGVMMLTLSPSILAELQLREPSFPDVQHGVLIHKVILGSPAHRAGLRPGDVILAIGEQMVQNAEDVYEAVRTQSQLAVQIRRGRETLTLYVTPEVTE
Sequence of GRIP2_7, Q9C0E4 (Q9C0E4 934-1023): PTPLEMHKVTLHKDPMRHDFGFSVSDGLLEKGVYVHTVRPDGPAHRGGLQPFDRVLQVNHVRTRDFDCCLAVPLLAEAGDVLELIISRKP
Sequence of NHERF2_2, Q15599 (Q15599 142-238): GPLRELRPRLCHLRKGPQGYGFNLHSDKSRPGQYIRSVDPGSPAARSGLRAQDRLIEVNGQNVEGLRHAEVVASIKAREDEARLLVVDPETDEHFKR
Sequence of MAGI2_2, Q86UL8 (Q86UL8 410-522): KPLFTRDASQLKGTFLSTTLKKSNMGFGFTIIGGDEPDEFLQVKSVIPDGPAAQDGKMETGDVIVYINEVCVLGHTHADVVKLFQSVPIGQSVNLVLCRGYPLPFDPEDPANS
Sequence of GORASP1, Q9BQQ3 (Q9BQQ3 1-208): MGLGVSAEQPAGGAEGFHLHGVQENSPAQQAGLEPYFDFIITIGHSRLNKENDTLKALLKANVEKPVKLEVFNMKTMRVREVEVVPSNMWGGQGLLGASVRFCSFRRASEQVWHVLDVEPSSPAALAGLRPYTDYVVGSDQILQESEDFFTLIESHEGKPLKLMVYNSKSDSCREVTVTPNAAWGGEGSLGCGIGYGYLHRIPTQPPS
Sequence of DLG2_2, Q15700 (Q15700 189-283): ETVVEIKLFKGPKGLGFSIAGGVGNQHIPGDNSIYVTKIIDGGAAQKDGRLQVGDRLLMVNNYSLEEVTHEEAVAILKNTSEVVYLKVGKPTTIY
Sequence of GRID2IP_1, A4D2P6 (A4D2P6 1-87): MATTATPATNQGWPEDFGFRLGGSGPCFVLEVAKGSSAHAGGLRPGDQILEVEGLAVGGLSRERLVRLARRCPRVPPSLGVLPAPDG
Sequence of DLG1_3, Q12959 (Q12959 457-571): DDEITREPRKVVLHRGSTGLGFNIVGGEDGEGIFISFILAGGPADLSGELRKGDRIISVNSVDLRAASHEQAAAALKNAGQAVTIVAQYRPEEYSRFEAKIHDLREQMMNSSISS
Sequence of LDB3, O75112 (O75112 1-94): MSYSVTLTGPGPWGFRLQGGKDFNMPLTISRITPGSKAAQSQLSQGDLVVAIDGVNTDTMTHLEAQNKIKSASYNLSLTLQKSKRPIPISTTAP

Row | Binder | pKd (APBA3_1, O96018) | pKd (DLG2_2, Q15700) | pKd (CARD11, Q9BXL7) | pKd (LIN7C, Q9NUP9) | pKd (GRID2IP_1, A4D2P6) | pKd (LDB3, O75112) | pKd (SYNJ2BP, P57105) | pKd (GRIP2_7, Q9C0E4) | pKd (GRIP1_7, Q9Y3R0) | pKd (MAGI2_2, Q86UL8) | pKd (NHERF2_2, Q15599) | pKd (SNTG2, Q9NY99) | pKd (FRMPD2_2, Q68DX3) | pKd (GRID2IP_2, A4D2P6) | pKd (MPDZ_12, O75970) | pKd (HTRA2, O43464) | pKd (HTRA3, P83110) | pKd (DLG4_3, P78352) | pKd (MAST1, Q9Y2H9) | pKd (SCRIB_1, Q14160) | further results
1 | RLPKIKETTV [FRMPD4, Q14CM0] | below the threshold | 5.5 | below the threshold | 5.29 | below the threshold | below the threshold | 5.47 | below the threshold | below the threshold | 4.73 | below the threshold | 5.3 | below the threshold | 3.74 | below the threshold | below the threshold | below the threshold | 5.25 | 4.26 | 4.95 | pKd (GORASP1, Q9BQQ3): below the threshold; pKd (GORASP2, Q9H8Y8): 4.02; pKd (AHNAK1, Q09666): below the threshold; pKd (DLG1_3, Q12959): 5.3; pKd (GRIP2_5, Q9C0E4): below the threshold; pKd (MAGI2_5, Q86UL8): 3.9; pKd (TIAM2, Q8IVF5): below the threshold; pKd (SNTA1, Q13424): 6.66
2 | RHTTSTETAV [HPV30-E6, P36809] | below the threshold | 5.19 | below the threshold | 4.19 | below the threshold | below the threshold | 5.36 | 3.84 | below the threshold | 5.04 | below the threshold | 4.67 | 4.23 | below the threshold | below the threshold | below the threshold | below the threshold | 4.35 | 4.66 | 4.76 | pKd (GORASP1, Q9BQQ3): below the threshold; pKd (GORASP2, Q9H8Y8): below the threshold; pKd (AHNAK1, Q09666): 3.72; pKd (DLG1_3, Q12959): 4.39; pKd (GRIP2_5, Q9C0E4): 3.75; pKd (MAGI2_5, Q86UL8): 4.31; pKd (TIAM2, Q8IVF5): below the threshold; pKd (SNTA1, Q13424): 4.72
3 | SSLQSLETSV [ATP2B4, P23634] | below the threshold | 5.08 | below the threshold | 4.8 | below the threshold | below the threshold | 5.66 | 3.52 | below the threshold | 4.49 | 3.84 | 4.89 | 4.64 | below the threshold | 3.53 | below the threshold | 3.51 | 4.65 | 5.26 | 5.03 | pKd (GORASP1, Q9BQQ3): below the threshold; pKd (GORASP2, Q9H8Y8): 3.98; pKd (AHNAK1, Q09666): below the threshold; pKd (DLG1_3, Q12959): 4.86; pKd (GRIP2_5, Q9C0E4): below the threshold; pKd (MAGI2_5, Q86UL8): 4.6; pKd (TIAM2, Q8IVF5): below the threshold; pKd (SNTA1, Q13424): 4.91
